Molecular target: V3A3E3 PA conjugated to carboxytetramethylrhodamine
Assay: FRET or BRET

FRET ratio: 0.6 to 0.7
Substance: V3A3E3 PA conjugated to fluorescein isothiocyanate (peptide)

— PMC8049983
